Here are results for four molecules from patent publication US20260232827A1 (Zymeworks, published 2026).

Test [1] addresses T1, Construct 6 (human NaPi2b del 317-333) (human, UniProt O95436 1-690).
T1 construct: also called CL_#29919
T1 sequence: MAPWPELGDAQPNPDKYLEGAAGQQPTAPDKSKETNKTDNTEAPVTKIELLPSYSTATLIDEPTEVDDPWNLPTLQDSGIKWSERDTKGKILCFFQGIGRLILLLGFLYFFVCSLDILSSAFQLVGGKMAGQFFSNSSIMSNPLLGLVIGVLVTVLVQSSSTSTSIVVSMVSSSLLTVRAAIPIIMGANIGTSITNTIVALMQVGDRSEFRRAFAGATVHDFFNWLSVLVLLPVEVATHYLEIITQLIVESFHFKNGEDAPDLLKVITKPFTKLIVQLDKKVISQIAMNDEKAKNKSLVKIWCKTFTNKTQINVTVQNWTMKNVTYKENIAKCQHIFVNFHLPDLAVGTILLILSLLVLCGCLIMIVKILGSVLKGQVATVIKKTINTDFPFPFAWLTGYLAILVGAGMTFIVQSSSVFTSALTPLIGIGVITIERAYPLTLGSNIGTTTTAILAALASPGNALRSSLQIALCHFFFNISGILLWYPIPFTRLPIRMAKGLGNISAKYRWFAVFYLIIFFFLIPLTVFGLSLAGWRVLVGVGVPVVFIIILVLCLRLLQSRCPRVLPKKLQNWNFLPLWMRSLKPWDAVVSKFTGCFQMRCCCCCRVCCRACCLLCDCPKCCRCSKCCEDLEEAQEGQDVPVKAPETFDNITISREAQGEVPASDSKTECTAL
As to the kind of experiment: flow cytometry, transfected HEK293-6e cells, antibody 2 nM. (Flow cytometry measures light scatter and fluorescence of single cells or particles in a stream.)

For test [2], the target named is T2, Full length human NaPi2b (sodium-dependent phosphate transporter 2B, SLC34A2) (human, UniProt O95436 1-690).
T2 construct: also called huNaPi2b; CL_#13432
T2 sequence: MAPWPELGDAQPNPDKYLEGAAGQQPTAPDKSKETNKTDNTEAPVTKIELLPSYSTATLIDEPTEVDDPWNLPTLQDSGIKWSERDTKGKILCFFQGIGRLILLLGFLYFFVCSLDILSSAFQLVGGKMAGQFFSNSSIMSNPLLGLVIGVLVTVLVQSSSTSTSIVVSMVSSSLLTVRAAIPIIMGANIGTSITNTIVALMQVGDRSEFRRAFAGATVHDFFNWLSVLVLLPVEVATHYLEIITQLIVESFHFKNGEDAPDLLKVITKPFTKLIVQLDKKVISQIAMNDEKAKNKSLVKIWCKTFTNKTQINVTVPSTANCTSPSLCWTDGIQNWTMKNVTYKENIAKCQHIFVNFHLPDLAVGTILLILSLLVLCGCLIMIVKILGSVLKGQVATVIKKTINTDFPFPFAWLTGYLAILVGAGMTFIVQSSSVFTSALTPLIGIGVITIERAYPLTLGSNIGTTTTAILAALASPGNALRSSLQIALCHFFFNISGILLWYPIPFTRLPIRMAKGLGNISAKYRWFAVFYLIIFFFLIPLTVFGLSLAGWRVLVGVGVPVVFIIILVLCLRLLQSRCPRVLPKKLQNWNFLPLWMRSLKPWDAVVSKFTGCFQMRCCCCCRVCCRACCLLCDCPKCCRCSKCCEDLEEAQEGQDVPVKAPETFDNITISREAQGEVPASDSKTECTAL
The test is described as above.

Test [3] deals with T3, Construct 4 (chimeric human NaPi2b, swap in NaPi2c in 341-358) (human).
T3 construct: also called CL_#13435
The test is described as above.

In test [4] the target is T4, Construct 3 (chimeric human NaPi2b, swap in NaPi2c in 304-321) (human).
T4 construct: also called CL_#29916
The test is described as above.

For test [5], the target named is T5, Construct 2 (chimeric human NaPi2b, swap in NaPi2c in 280-301) (human).
T5 construct: also called CL_#29915
The test is described as above.

Test [6] deals with T6, Construct 7 (human NaPi2b del 317-326) (human, UniProt O95436 1-690).
T6 construct: also called CL_#29921
T6 sequence: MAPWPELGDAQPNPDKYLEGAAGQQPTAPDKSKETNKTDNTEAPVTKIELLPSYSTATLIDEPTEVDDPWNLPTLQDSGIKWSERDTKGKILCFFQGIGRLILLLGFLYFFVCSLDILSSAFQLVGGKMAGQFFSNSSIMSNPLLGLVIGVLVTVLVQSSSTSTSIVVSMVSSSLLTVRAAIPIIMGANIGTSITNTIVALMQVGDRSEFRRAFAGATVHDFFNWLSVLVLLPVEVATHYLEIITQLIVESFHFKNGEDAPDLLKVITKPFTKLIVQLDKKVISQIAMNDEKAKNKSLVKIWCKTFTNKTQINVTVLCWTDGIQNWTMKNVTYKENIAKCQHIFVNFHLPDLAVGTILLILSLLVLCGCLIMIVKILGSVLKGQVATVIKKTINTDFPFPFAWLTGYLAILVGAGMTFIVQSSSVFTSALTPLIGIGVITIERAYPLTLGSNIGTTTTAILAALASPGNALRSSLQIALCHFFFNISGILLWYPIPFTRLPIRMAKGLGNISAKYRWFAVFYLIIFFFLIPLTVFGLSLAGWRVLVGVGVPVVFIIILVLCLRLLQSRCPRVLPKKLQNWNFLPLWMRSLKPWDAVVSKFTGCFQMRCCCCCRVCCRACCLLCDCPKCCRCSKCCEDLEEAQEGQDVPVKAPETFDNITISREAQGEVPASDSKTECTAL
The description is as above.

The target of test [7] is T1, Construct 6 (human NaPi2b del 317-333). Nature of the test: flow cytometry, transfected HEK293-6e cells, antibody 200 nM.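 Further: cells incubated with antibody for 24 h at 4 °C, background taken as average MFI of unstained cells without primary antibody, at least 1,000 events per well.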
For test [8], the target named is T2, Full length human NaPi2b …. Described as above.
Test [9] concerns the target T3, Construct 4 (chimeric human NaPi2b, …). The test is described as above.
The target of test [10] is T4, Construct 3 (chimeric human NaPi2b, …). Described as above.

B1: v38591 (humanized anti-NaPi2b antibody, H1L2, wild-type Fc, heavy chains with C-terminal lysine) (antibody, human IgG1, kappa)
heavy: not shown
light: DVQMTQSPSSLSASVGDRVTITCRASQDVYSYLNWYQQKPGKAVKLLIYYTSRLQSGVPSRFSGSGSGTDYTLTISSLQPEDFATYYCQQYNIFPWTFGQGTKLEIKRTVAAPSVFIFPPSDEQLKSGTASVVCLLNNFYPREAKVQWKVDNALQSGNSQESVTEQDSKDSTYSLSSTLTLSKADYEKHKVYACEVTHQGLSSPVTKSFNRGEC
notes: Full-size human IgG1/kappa antibody; also called v38591 (wild-type Fc)
B1: the “Background-Subtracted AF647 Mean Fluorescence Intensity” value in test [1] is -38 MFI; in test [2] it was 948 MFI; in [3] it was 725 MFI; in test [4], 743 MFI; in [5], 832 MFI; in [6], 677 MFI. Also, the “Background-Subtracted AF647 Mean Fluorescence Intensity” value in test [7] was found to be 210 MFI; in [8], 989 MFI; in test [9] it was 933 MFI; in test [10], 810 MFI.

B2: MX35 (v18992), reference anti-NaPi2b antibody (antibody, human IgG1, kappa)
heavy 1: GQVQLVQSGAEVVKPGASVKMSCKASGYTFTGYNIHWVKQAPGQGLEWIGAIYPGNGDTSYKQKFRGRATLTADTSTSTVYMELSSLRSEDSAVYYCARGETARATFAYWGQGTLVTVSSASTKGPSVFPLAPSSKSTSGGTAALGCLVKDYFPEPVTVSWNSGALTSGVHTFPAVLQSSGLYSLSSVVTVPSSSLGTQTYICNVNHKPSNTKVDKKVEPKSCDKTHTCPPCPAPELLGGPSVFLFPPKPKDTLMISRTPEVTCVVVDVSHEDPEVKFNWYVDGVEVHNAKTKPREEQYNSTYRVVSVLTVLHQDWLNGKEYKCKVSNKALPAPIEKTISKAKGQPREPQVYVYPPSRDELTKNQVSLTCLVKGFYPSDIAVEWESNGQPENNYKTTPPVLDSDGSFALVSKLTVDKSRWQQGNVFSCSVMHEALHNHYTQKSLSLSPG
heavy 2: not shown
light: GDIQMTQSPSSLSASVGDRVTITCSASQDIGNFLNWYQQKPGKTVKVLIYYTSSLYSGVPSRFSGSGSGTDYTLTISSLQPEDFATYYCQQYSKLPLTFGQGTKLELKRTVAAPSVFIFPPSDEQLKSGTASVVCLLNNFYPREAKVQWKVDNALQSGNSQESVTEQDSKDSTYSLSSTLTLSKADYEKHKVYACEVTHQGLSSPVTKSFNRGEC
Turning to B2, the “Background-Subtracted AF647 Mean Fluorescence Intensity” value in [1] was -59 MFI; in test [2], 870 MFI; in test [3] it was 611 MFI; in test [4], 594 MFI; in test [5], 660 MFI; in test [6], 76 MFI. For the same molecule, the “Background-Subtracted AF647 Mean Fluorescence Intensity” value in test [7] was -2 MFI; in test [8], 979 MFI; in test [9] it was 764 MFI; in [10] it was 802 MFI.

B3: palivizumab (v21995), anti-RSV antibody, negative control (antibody, human IgG1, kappa, V domains shown)
VH: QVTLRESGPALVKPTQTLTLTCTFSGFSLSTSGMSVGWIRQPPGKALEWLADIWWDDKKDYNPSLKSRLTISKDTSKNQVVLKVTNMDPADTATYYCARSMITNWYFDVWGAGTTVTVSS
VL: DIQMTQSPSTLSASVGDRVTITCKSQLSVGYMHWYQQKPGKAPKLLIYDTSKLASGVPSRFSGSGSGTEFTLTISSLQPDDFATYYCFQGSGYPFTFGGGTKLEIKR
As for B3, the “Background-Subtracted AF647 Mean Fluorescence Intensity” value is 11 MFI in test [1]; -22 MFI in [2]; 1 MFI in [3]; 19 MFI in test [4]; -69 MFI in test [5]; -34 MFI in test [6]. For the same molecule, the “Background-Subtracted AF647 Mean Fluorescence Intensity” value is 2 MFI in test [7], 19 MFI in test [8], 12 MFI in test [9] and -5 MFI in [10].

B4: lifastuzumab (v18993), reference anti-NaPi2b antibody (antibody, human IgG1, kappa)
heavy 1: GEVQLVESGGGLVQPGGSLRLSCAASGFSFSDFAMSWVRQAPGKGLEWVATIGRVAFHTYYPDSMKGRFTISRDNSKNTLYLQMNSLRAEDTAVYYCARHRGFDVGHFDFWGQGTLVTVSSASTKGPSVFPLAPSSKSTSGGTAALGCLVKDYFPEPVTVSWNSGALTSGVHTFPAVLQSSGLYSLSSVVTVPSSSLGTQTYICNVNHKPSNTKVDKKVEPKSCDKTHTCPPCPAPELLGGPSVFLFPPKPKDTLMISRTPEVTCVVVDVSHEDPEVKFNWYVDGVEVHNAKTKPREEQYNSTYRVVSVLTVLHQDWLNGKEYKCKVSNKALPAPIEKTISKAKGQPREPQVYVYPPSRDELTKNQVSLTCLVKGFYPSDIAVEWESNGQPENNYKTTPPVLDSDGSFALVSKLTVDKSRWQQGNVFSCSVMHEALHNHYTQKSLSLSPG
heavy 2: not shown
light: GDIQMTQSPSSLSASVGDRVTITCRSSETLVHSSGNTYLEWYQQKPGKAPKLLIYRVSNRFSGVPSRFSGSGSGTDFTLTISSLQPEDFATYYCFQGSFNPLTFGQGTKVEIKRTVAAPSVFIFPPSDEQLKSGTASVVCLLNNFYPREAKVQWKVDNALQSGNSQESVTEQDSKDSTYSLSSTLTLSKADYEKHKVYACEVTHQGLSSPVTKSFNRGEC
As for B4, the “Background-Subtracted AF647 Mean Fluorescence Intensity” value in test [1] was -91 MFI; in test [2], 1040 MFI; in [3], 726 MFI; in test [4], 609 MFI; in [5] it was 473 MFI; in [6] it was 56 MFI. The “Background-Subtracted AF647 Mean Fluorescence Intensity” value in [7] is 183 MFI; in test [8], 893 MFI; in [9] it was 744 MFI; in [10], 943 MFI.
